Experimental data taken from article PMC4731787, “Structural basis for the recognition of two consecutive mutually interacting DPF motifs by the SGIP1 μ homology domain” (Scientific Reports, 2016).
Where no end group is shown, it is not given here. GST = glutathione S-transferase fusion tag

B1: GST-Eps15-628–654 (domain or fragment, human)
chain: {GST}-SDPFKDDPFGKIDPFGGDPFKGSDPFA
notes: source: E. coli, purified (Glutathione Sepharose 4B, glutathione elution, Superdex 200); not shown: GST, N-terminal, kept
B2: GST-Eps15-628–644 (domain or fragment, human)
chain: {GST}-SDPFKDDPFGKIDPFGG
notes: as for B1
B3: Eps15-628–654 (peptide)
peptide: Ac-YSDPFKDDPFGKIDPFGGDPFKGSDPFA-NH2
notes: artificial N-terminal Tyr; source: synthetic peptide (Eurofins Genomics)
B4: Eps15-662–676 (peptide)
peptide: Ac-YSTDPFATSSTDPFSA-NH2
notes: as for B3

What follows are binders tested against T1, SGIP1 µ homology domain (µHD), residues 552 to 828 (human, UniProt Q9BQI5-1 552-828) (assay: ITC; µHD, µHD mutant or α-adaptin appendage domain in the sample cell, titrated with the Eps15 fragment or peptide; 50 mM Tris-HCl (pH 8.0), 50 mM NaCl, 25 °C; VP-ITC; two data sets fitted globally (NITPIC, SEDPHAT); single-site model). Settings: both partners purified.
T1 construct: pGEX-6P-1 construct cut with 3C protease; also called SGIP1 µHD; human SGIP1 µHD (aa552–828); source: E. coli BL21-Gold (DE3) or Rosetta2, purified (Glutathione Sepharose 4B, 3C protease cleavage, Superdex 200)
T1 sequence (looked up): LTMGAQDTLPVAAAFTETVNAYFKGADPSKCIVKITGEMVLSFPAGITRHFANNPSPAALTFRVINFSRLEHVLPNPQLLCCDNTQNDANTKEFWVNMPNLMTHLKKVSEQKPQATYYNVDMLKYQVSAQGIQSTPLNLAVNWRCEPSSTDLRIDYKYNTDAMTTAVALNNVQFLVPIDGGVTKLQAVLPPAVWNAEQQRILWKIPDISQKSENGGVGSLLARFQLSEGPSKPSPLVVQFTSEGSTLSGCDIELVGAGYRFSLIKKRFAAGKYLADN
In the case of B1, the Kd is reported as 1 µM and the “stoichiometry N” value is reported as 0.86. For B2, the Kd was 0.65 µM and the “stoichiometry N” value was 0.92. B3 was tested, and the “stoichiometry N” value was 0.67. A Kd of 125 µM was found for B4 in this work.
